Source: patent US20250313631A1 (HUMMINGBIRD BIOSCIENCE PTE, published 2025)
Read-outs that look alike come from different tables or passages of the source.

T1: recombinant rat VISTA (His-tagged) (rat, UniProt A0ABK0L5H3 33-192)
T1 sequence: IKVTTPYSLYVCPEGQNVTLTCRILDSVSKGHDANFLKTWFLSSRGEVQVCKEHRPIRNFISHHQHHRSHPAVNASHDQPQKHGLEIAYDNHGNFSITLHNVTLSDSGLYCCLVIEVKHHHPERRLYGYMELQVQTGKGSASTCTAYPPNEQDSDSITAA

T2: human B7H3 (human, UniProt Q5ZPR3 29-461, limits assumed)
T2 construct: also called CD276
T2 sequence (looked up): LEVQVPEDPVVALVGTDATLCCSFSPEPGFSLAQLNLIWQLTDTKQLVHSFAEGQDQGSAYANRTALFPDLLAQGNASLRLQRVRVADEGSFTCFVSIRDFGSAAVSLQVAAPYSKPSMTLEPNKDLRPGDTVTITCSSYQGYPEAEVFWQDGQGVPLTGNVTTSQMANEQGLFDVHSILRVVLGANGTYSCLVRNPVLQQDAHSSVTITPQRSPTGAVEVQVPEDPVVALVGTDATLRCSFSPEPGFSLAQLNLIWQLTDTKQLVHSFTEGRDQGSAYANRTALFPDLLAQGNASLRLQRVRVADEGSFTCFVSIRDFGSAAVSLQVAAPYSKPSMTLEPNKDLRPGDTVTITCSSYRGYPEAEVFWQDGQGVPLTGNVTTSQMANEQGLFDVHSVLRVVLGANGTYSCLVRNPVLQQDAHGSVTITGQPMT

T3: human B7H4 (human, UniProt Q7Z7D3 25-258, limits assumed)
T3 construct: also called VTCN1
T3 sequence (looked up): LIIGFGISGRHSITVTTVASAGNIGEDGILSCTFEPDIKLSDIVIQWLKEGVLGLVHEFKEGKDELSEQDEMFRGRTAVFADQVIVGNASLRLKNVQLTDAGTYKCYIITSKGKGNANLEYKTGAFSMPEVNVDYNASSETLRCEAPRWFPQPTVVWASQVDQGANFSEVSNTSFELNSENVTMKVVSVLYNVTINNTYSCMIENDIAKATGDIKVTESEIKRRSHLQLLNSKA

T4: human B7H6 (human, UniProt Q68D85 25-262)
T4 construct: also called NCR3LG1
T4 sequence (looked up): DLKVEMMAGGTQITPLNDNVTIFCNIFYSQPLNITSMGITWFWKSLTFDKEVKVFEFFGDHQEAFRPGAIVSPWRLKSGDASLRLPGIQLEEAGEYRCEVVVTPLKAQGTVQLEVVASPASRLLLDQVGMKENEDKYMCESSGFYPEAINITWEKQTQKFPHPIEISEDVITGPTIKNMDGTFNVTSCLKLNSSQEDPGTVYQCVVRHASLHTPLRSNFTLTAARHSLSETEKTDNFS

T5: human B7H7 (human, UniProt Q9UM44 23-344)
T5 construct: also called HHLA2
T5 sequence (looked up): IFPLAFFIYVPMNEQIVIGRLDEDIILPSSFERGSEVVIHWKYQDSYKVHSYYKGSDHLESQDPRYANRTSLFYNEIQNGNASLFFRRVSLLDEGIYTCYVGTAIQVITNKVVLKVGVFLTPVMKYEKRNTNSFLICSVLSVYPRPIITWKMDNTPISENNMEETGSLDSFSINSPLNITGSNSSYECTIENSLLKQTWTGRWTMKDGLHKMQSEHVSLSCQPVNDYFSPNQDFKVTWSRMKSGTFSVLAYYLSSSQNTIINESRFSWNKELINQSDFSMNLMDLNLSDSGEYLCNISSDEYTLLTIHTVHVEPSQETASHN

T6: recombinant mouse VISTA (His-tagged) (mouse, UniProt Q9D659 33-191)
T6 construct: also called murine VISTA; mVISTA
T6 sequence (looked up): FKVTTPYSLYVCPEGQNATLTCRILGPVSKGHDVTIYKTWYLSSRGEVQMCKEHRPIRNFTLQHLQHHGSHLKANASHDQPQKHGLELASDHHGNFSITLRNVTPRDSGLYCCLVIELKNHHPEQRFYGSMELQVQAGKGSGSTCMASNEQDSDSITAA

B1: anti-VISTA clone V4-C28 IgG1 (antibody, V domains shown)
VH: QVQLQESGPGLVKPSDTLSLTCTVSGYSITSDYTWNWIRQTPGKGLEWIGHITYSGSVSYNPSLRSRVTISRDTSKNQFSLKLSSVTAADTATYSCARALYYPWYFDVWGTGTTVTVSS
VL: EIVLTQSPATLSLSPGERATLSCRASSSVGYIHWYQQKPGQAPRPLIYATSYRATGIPARFSGSGSGTDNTLTISSLEPEDSAVYYCQQWSSYPPITFGGGTKLEVKR
B2: anti-VISTA clone V4-C30 IgG1 (antibody, V domains shown)
VH: QVQLQESGPGLVKPSDTLSLTCTVSGYSITSDYTWNWIRQTPGKGLEWIGHITYSGSVSYNPSLRSRVTISRDTSKNQFSLKLSSVTAADTATYSCARALYYPWYFDVWGTGTTVTVSS
VL: EIVLTQSPATLSLSPGERATLSCRASSSVGYIHWYQQKPGQAPRPLIYATYYRATGIPARFSGSGSGTDNTLTISSLEPEDSAVYYCQQWSSYPPITFGGGTKLEVKR

Assays:
[1] = target: T1, recombinant rat VISTA (His-tagged); assay: ELISA, plate coated with rat VISTA
[2] = target: T7, recombinant cynomolgus macaque VISTA (His-tagged) (cynomolgus macaque, UniProt A0A7N9IB00 33-194); assay: ELISA, plate coated with cyno VISTA
T7 construct: also called cyno VISTA; cynomolgus monkey VISTA

[3] = target: T8, recombinant human VISTA (His-tagged) (human, UniProt Q9H7M9 33-194); assay: ELISA, plate coated with human VISTA
T8 construct: bought soluble protein (Sino Biological); also called hVISTA; human VISTA polypeptide

[4] = target: T9, human PD-1 (human, UniProt Q15116 25-167); assay: ELISA, plate coated with the antigen
[5] = target: T2, human B7H3; assay: ELISA, plate coated with the antigen
[6] = target: T3, human B7H4; assay: ELISA, plate coated with the antigen
[7] = target: T4, human B7H6; assay: ELISA, plate coated with the antigen
[8] = target: T5, human B7H7; assay: ELISA, plate coated with the antigen
[9] = target: T10, human CTLA4 (human, UniProt P16410 36-162); assay: ELISA, plate coated with the antigen
[10] = target: T8, recombinant human VISTA (His-tagged); assay: ELISA, plate coated with human VISTA; remark: listed apart in the source
[11] = target: T6, recombinant mouse VISTA (His-tagged); assay: ELISA, plate coated with mouse VISTA
[12] = target: T8, recombinant human VISTA (His-tagged); assay: BLI (Octet), 1:1 global fit, His-tagged human VISTA captured
[13] = target: T6, recombinant mouse VISTA (His-tagged); assay: BLI (Octet), 1:1 global fit, His-tagged mouse VISTA captured
[14] = target: T6, recombinant mouse VISTA (His-tagged); assay: as above; remark: listed apart in the source
[15] = target: T8, recombinant human VISTA (His-tagged); assay: ELISA, plate coated with human VISTA; unit nM from the legend paragraph 697
[16] = target: T6, recombinant mouse VISTA (His-tagged); assay: ELISA, plate coated with mouse VISTA; unit nM from the legend paragraph 697
[17] = target: T8, recombinant human VISTA (His-tagged); assay: ELISA, plate coated with human VISTA; unit nM from the legend paragraph 698
[18] = target: T6, recombinant mouse VISTA (His-tagged); assay: ELISA, plate coated with mouse VISTA; unit nM from the legend paragraph 698
[19] = target: T11, human PD-L1 (human, UniProt Q9NZQ7 19-239); assay: BLI (Octet), His-tagged human PD-L1 on anti-Penta-HIS biosensor, antibody 500-15.6 nM
T11 construct: captured through a His tag in the BLI experiments; also called hPD-L1; B7H1/PDL-1
Method: Finally, the biosensors were incubated for 120 sec in PBS pH 7.2 to obtain the dissociation curves. Kinetic and affinity constants were calculated by global fitting of the association and dissociation data to a 1:1 binding model.

[20] = target: T8, recombinant human VISTA (His-tagged); assay: ELISA, plate coated with human VISTA; remark: listed apart in the source
[21] = target: T9, human PD-1; assay: ELISA, plate coated with the antigen; remark: listed apart in the source
[22] = target: T2, human B7H3; assay: ELISA, plate coated with the antigen; remark: listed apart in the source
[23] = target: T3, human B7H4; assay: ELISA, plate coated with the antigen; remark: listed apart in the source
[24] = target: T4, human B7H6; assay: ELISA, plate coated with the antigen; remark: listed apart in the source
[25] = target: T5, human B7H7; assay: ELISA, plate coated with the antigen; remark: listed apart in the source
[26] = target: T10, human CTLA4; assay: ELISA, plate coated with the antigen; remark: listed apart in the source

T11 sequence (Q9NZQ7 19-239 limits assumed): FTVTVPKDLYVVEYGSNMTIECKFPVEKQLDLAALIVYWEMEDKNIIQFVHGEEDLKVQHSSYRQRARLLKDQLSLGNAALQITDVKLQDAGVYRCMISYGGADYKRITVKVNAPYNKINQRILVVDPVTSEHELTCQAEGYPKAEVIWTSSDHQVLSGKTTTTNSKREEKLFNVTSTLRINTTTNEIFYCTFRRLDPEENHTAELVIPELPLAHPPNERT
T10 sequence (P16410 36-162 limits assumed): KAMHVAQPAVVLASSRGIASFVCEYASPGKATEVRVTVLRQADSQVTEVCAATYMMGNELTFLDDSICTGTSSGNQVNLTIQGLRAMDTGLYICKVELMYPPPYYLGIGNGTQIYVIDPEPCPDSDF
T9 sequence (Q15116 25-167 limits assumed): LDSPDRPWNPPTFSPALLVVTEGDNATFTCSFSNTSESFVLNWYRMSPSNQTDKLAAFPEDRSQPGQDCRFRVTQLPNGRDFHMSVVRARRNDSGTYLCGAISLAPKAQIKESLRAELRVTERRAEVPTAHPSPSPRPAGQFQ

| Binder | EC50 [1] | EC50 [2] | EC50 [10] | EC50 [11] | Kd [12] | koff [12] | kon [12] | Kd [13] | koff [13] | kon [13] | Kd [14] | koff [14] | kon [14] | EC50 [15] | EC50 [16] | EC50 [17] | EC50 [18] | binding result [19] | other results |
| --- | --- | --- | --- | --- | --- | --- | --- | --- | --- | --- | --- | --- | --- | --- | --- | --- | --- | --- | --- |
| B1 | 217 pM | 36.7 pM | 34.6 pM | 36.5 pM | < 1 pM | < 1e-07 s⁻¹ | 507000 M⁻¹ s⁻¹ | 170 pM | 8.2e-05 s⁻¹ | 475000 M⁻¹ s⁻¹ | 489 pM | 0.00025 s⁻¹ | 520000 M⁻¹ s⁻¹ | 1.5 pM | 4.5 pM | 53 pM | 64 pM | no binding (tested: 500 nM) | EC50 (read off the curve) [3]: ~30 pM; binding result [4]: no binding (tested: log -7.5 M); binding result [5]: no binding (tested: log -7.5 M); binding result [6]: no binding (tested: log -7.5 M); binding result [7]: no binding (tested: log -7.5 M); binding result [8]: no binding (tested: log -7.5 M); binding result [9]: no binding (tested: log -7.5 M) |
| B2 | 206 pM | 27.2 pM | 31.8 pM | 32.6 pM | < 1 pM | < 1e-07 s⁻¹ | 593000 M⁻¹ s⁻¹ | 5 pM | 2.8e-06 s⁻¹ | 505000 M⁻¹ s⁻¹ | < 1 pM | < 1e-07 s⁻¹ | 533000 M⁻¹ s⁻¹ | < 0.7 pM | 1.3 pM | 88 pM | 123 pM | no binding (tested: 500 nM) | EC50 (read off the curve) [20]: ~20 pM; binding result [21]: no binding (tested: log -7.5 M); binding result [22]: no binding (tested: log -7.5 M); binding result [23]: no binding (tested: log -7.5 M); binding result [24]: no binding (tested: log -7.5 M); binding result [25]: no binding (tested: log -7.5 M); binding result [26]: no binding (tested: log -7.5 M) |
